Experimental data published in article PMC12172430.

Molecular target: DS-Cav1 (soluble trimeric RSV prefusion F ectodomain) (respiratory syncytial virus | bacteriophage T4) (UniProt P03420)
Assay: native gel or EMSA; native-PAGE and native western blot of the purified soluble RSV F protein

With “DS-Cav1 (soluble trimeric RSV prefusion F ectodomain) (from UniProt P03420 26-513)” the stoichiometry N was 3.
